Experimental data published in patent publication US20230287402A1 (University of Washington, published 2023).

B1: A(d)mScarlet, dihedral A component with N-terminal mScarlet (A_n_mScarlet) (designed binder)
chain: NKIHGSHHHHHHGSTSGSAMVSKGEAVIKEFMRFKVHMEGSMNGHEFEIEGEGEGRPYEGTQTAKLKVTKGGPLPFSWDILSPQFMYGSRAFTKHPADIPDYYKQSFPEGFKWERVMNFEDGGAVTVTQDTSLEDGTLIYKVKLRGTNFPPDGPVMQKKTMGWEASTERLYPEDGVLKGDIKMALRLKDGGRYLADFKTTYKAKKPVQMPGAYNVDRKLDITSHNEDYTVVEQYERSEGRHSTGGMDELYKGGSGGSLALVATGNDTTTKPDLYYLKNSEAINSLALLPPPPAVGSIAFLNDQAMYEQGRLLRNTERGKLAAEDANLSSGGVANAFSGAFGSPITEKDAPALHKLLTNMIEDAGDLATRSAKDHYMRIRPFAFYGVSTCNTTEQDKLSKNGSYPSGHTSIGWATALVLAEINPQRQNEILKRGYELGQSRVICGYHWQSDVDAARVVGSAVVATLHTNPEFQAQLIKAKIEFKQHQK
notes: also called AmScarlet
B2: A component of design #13 (D3 homooligomer, designed from 1d2t) (designed binder)
chain: MGHHHHHHGGLALVATGNDTTTKPDLYYLKNSEAINSLALLPPPPAVGSIAFLNDQAMYEQGRLLRNTERGKLAAEDANLSSGGVANAFSGAFGSPITEKDAPALHKLLTNMIEDAGDLATRSAKDHYMRIRPFAFYGVSTCNTTEQDKLSKNGSYPSGHTSIGWATALVLAEINPQRQNEILKRGYELGQSRVICGYHWQSDVDAARVVGSAVVATLHTNPEFQAQLIKAKIEFKQHQKEL
notes: also called component A; dihedral A

What was measured:
[1] = target: T1, B(c)GFP, cyclic B component with C-terminal GFP (Di13BLB_C_GFP); test: quantitative fluorescence microscopy of preformed arrays
[2] = target: T1, B(c)GFP, cyclic B component with …; test: calibrated microscope, corrected for FRET between GFP and mScarlet
[3] = target: T1, B(c)GFP, cyclic B component with …; test: stepwise array assembly on NIH/3T3 cells

Binder	mScarlet/GFP fluorescence ratio (arrays formed in vitro) [1]	A/B ratio of arrays generated on cells [2]	binding result [3]
B1	1.45	0.99	–
B2	–	–	binds
